Results as given in patent publication US20040142862A1, “Methods and compositions for modulating agonist-induced downregulation of G protein-coupled receptors” (The Regents of the University of California, priority 2002, published 2004).
“Also recorded” adds a separate entry of the source.

What was measured:
[1] = tested on: D MOR; test: Agonist-induced downregulation of D MOR, radioligand binding; type: cell-based; conditions: 10 μM, 3 hours
Source text: (§1) Agonist-induced downregulation can be determined by any of a variety of methods, including those described herein. For example, cell surface receptors can be measured and/or receptor proteolysis or localization in lysozomes can be determined. Alternatively, receptor downregulation can be determined indirectly by measuring desensitization of receptors after activation with an agonist. Desensitization can be determined, for example, by measuring a biological effect that is mediated by the receptor. (See FIG. 1 for examples of each of these methods.) Generally, it will be most convenient to measure cell surface receptors using a radio- or immunoassay. An exemplary radioligand binding assay useful for determining agonist-induced downregulation is described in Example 1. (See FIG. 1A and Reference 16.) Briefly, cells expressing the cell surface receptor of interest are incubated with a suitable agonist under conditions designed to provide a saturating concentration of agonist over the incubation period. After agonist treatment, the cells are recovered and assayed for radioligand binding. […]
(§2) (See 18 and 45 for the DOR and MOR expression constructs, respectively.) Cells were then chilled on ice, washed extensively and total opioid radioligand binding sites were determined for each cell line (16). […]

[2] = biological target: T1, MOR (Mus musculus, UniProt P42866); test: Agonist-induced downregulation of MOR, radioligand binding; type: cell-based; conditions: 10 μM, 3 hours
Source text: as §1, §2

[3] = tested on: D MOR; test: Membrane adenylyl cyclase assay, D MOR cells; type: cell-based
Protocol: (§3) 21. Membrane adenylyl cyclase assays were performed as previously described (9).

[4] = biological target: T1, MOR; test: Colocalization of MOR with LAMP1 and LAMP2; type: cell-based; conditions: 5 μM, 90 min
[5] = biological target: T1, MOR; test: Membrane adenylyl cyclase assay, MOR cells; type: cell-based
Protocol: as §3

[6] = biological target: epitope (FLAG)-tagged delta opioid receptor (DOR-1), full length, stably expressed in HEK293 cells (UniProt P32300); test: co-immunoprecipitation: receptor immunoprecipitated, blotted for GASP1
[7] = biological target: epidermal growth factor (EGF) receptor (Homo sapiens, UniProt P00533); test: EGFR assay, ligand-induced downregulation of EGF receptor; type: cell-based; conditions: EGF 30 minutes or 3 hours
Protocol: 32. EGFR assay: Cells expressing only endogenous GASP1 and cells overexpressing GFP-cGASP1 (>40×) were grown to 80% confluency and treated with 5 μM EGF in DMEM for the indicated times or left untreated. Cells were washed with PBS, EGF receptor was immunoprecipitated with Rabbit anti EGFR-affinity resin (Santa Cruz Biotechnology), separated by SDS page and immunoblotted with goat anti-EGFR antibodies (Santa Cruz Biotechnology), followed by HRP-conjugated anti-goat secondary (Jackson Immunoresearch) and development with ECL reagents (Amersham).

[8] = biological target: T2, B2AR-Ala (Homo sapiens, UniProt P07550); test: Co-immunoprecipitation with B2AR-Ala; type: binding; conditions: cells stably expressing B2AR-Ala and GFP-cGASP1
T2 construct: expressed in transfected cells
Source text: The ability of GASP1 to bind to the B2AR tail in vitro was initially surprising, since the B2AR recycles efficiently after agonist-induced endocytosis and is relatively resistant to proteolysis in HEK293 cells (35). It has been shown previously that efficient recycling of the B2AR in these cells requires the actin cytoskeleton and a distinct set of protein interactions with the distal tip of the cytoplasmic tail (7). Adding a single alanine residue to the carboxyl terminus of the B2AR specifically disrupts this “recycling protein” interaction, creating a mutant B2AR (B2AR-Ala) that is sorted to lysosomes after agonist-induced endocytosis (7) (and see this study FIG. 5C) much like DOR (FIG. 1B). […] Consistent with this, GFP-cGASP1 co-immunoprecipited with B2AR-Ala (FIG. 5B) (30). Furthermore, overexpression of GFP-cGASP1 inhibited degradation of internalized B2AR-Ala (FIG. 5C), providing evidence for a functional role of the GASP1 protein interaction in lysosomal sorting of a non-opioid GPCR.
30. Assay for coimmunoprecipitation of cGASP1 with opioid receptors: Cells were grown to confluency, washed 2 times with PBS and lysed in 0.1% Triton X-100, 150 mM NaCl, 25 mM KCl, 10 mM Tris-HCl pH 7.4 containing 1 μM leupeptin, 1 μM pepstatin A, 1 μM aprotinin, 2.5 μM Pefabloc SC, and cell debris was removed by centrifugation at 10,000×g for 10 minutes at 4° C. […]

[9] = biological target: T3, DOR (Mus musculus, UniProt P32300); test: Biotin protection-degradation assay, endocytosed DOR; type: cell-based; conditions: cells overexpressing cGASP1 vs DOR alone, agonist 3 hours
T3 construct: co-immunoprecipitated specifically with full length DOR but not with MOR expressed at similar levels; expressed in transfected cells
Protocol: (§4) 17. Biotin protection-degradation assay for proteolysis of surface-biotinylated receptors following endocytosis: Cells were grown to 80% confluency washed 2 times with cold phosphate buffered saline (PBS) then incubated in 3 μg/ml cleavable biotin (Pierce) in PBS at 4° C. for 30 minutes with gentle agitation. Cells were washed 2 times with Tris buffered saline and placed back into medium for treatment. Cells labeled “100% biotinylated” were left on ice in PBS. Cells labeled “100% stripped” were also left on ice in PBS then stripped as described below. Cells were treated with 5 μM agonist for 30 minutes or 3 hours, washed 2 times with cold PBS and the remaining cell surface biotinylated receptors were stripped in 50 mM glutathione, 0.3 M NaCl, 75 mM NaOH, 1% fetal bovine serum at 4° C. for 30 minutes. Glutathione was quenched with a 20 minute wash of PBS with 50 mM iodoacetamide, 1% bovine serum albumin. Cells were extracted in 0.1% Triton X-100, 150 mM NaCl, 25 mM KCl, 10 mM Tris-HCl pH 7.4 containing 1 μM leupeptin, 1 μM pepstatin A, 1 μM aprotinin, 2.5 μM Pefabloc SC, and cell debris was removed by centrifugation at 10,000×g for 10 minutes at 4° C. Receptors were immunoprecipitated using M2 antibody (Sigma), rabbit anti mouse linker (Jackson Immunoresearch) and protein A sepharose (Pharmacia) overnight. […]

[10] = biological target: T4, endogenous GASP1 binding to DOR (Mus musculus, UniProt P32300); test: Competition with endogenous GASP1 for DOR binding in cells (co-immunoprecipitation); type: cell-based; conditions: overexpressed approximately 40 fold over endogenous GASP1
T4 construct: co-immunoprecipitated specifically with full length DOR but not with MOR expressed at similar levels; expressed in transfected cells; host or cells: HEK293 stably expressing DOR (GASP1 endogenous)
Protocol: 30. Assay for coimmunoprecipitation of cGASP1 with opioid receptors: Cells were grown to confluency, washed 2 times with PBS and lysed in 0.1% Triton X-100, 150 mM NaCl, 25 mM KCl, 10 mM Tris-HCl pH 7.4 containing 1 μM leupeptin, 1 μM pepstatin A, 1 μM aprotinin, 2.5 μM Pefabloc SC, and cell debris was removed by centrifugation at 10,000×g for 10 minutes at 4° C. An aliquot of lysate was removed for GASP1 control blot. Lysate was incubated with M2 affinity resin (Sigma) overnight. Pellets were extensively washed and incubated with PNGase (NEB) for 2 hours at 37° C. to degycosylate receptor protein. Samples were eluted in SDS sample buffer. For co-immunoprecipitation with endogenous GASP1, one fourth of eluate was separated by SDS-PAGE on a 12% gel (receptor blot), three quarters on a 7% gel (GASP1 blot). For co-immunoprecipitation with cGASP1 eluate was run on a 12% gel that was later cut and blotted separately for cGASP1 and receptor. Proteins were transferred to nitrocellulose. GASP1 blots were incubated for 2 hours with rabbit anti-GASP1 (1:4000). cGASP1 blots were incubated with rabbit anti-GFP antibodies for 2 hours (1:200) (Clonetech). Both were followed by 1 hour with horseradish peroxidase (HRP)-conjugated anti-rabbit antibody (NEB) (1:3000), and visualized with ECL plus (Amersham). […]

[11] = biological target: T3, DOR; test: Agonist-induced downregulation of DOR, radioligand binding; type: cell-based; conditions: 5 μM DADLE 3 hours
[12] = biological target: T5, cytoplasmic tail of DOR (Mus musculus, UniProt P32300); test: GST affinity chromatography, binding to DOR cytoplasmic tail; conditions: in vitro
T5 construct: GST; made in house
T5 sequence (P32300 312-371): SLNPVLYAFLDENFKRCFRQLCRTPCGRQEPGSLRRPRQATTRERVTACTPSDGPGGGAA
Protocol: Sequence homology to a non-mammalian protein was observed between the carboxyl-terminal regions of GASP1 and Vac8p, a yeast protein involved in late endocytic trafficking (26).
24. Affinity chromatography was carried out as previously described (25).

[13] = biological target: T2, B2AR-Ala; test: Biotin protection-degradation assay, endocytosed B2AR-Ala; type: cell-based; conditions: cells overexpressing cGASP1 vs B2AR-Ala alone, isoproterenol
Protocol: as §4

[14] = agonist 3 hours, washout, 10 μM naloxone 30 minutes

CC(C)C[C@@H](NC(=O)[C@H](Cc1ccccc1)NC(=O)CNC(=O)[C@@H](C)NC(=O)[C@@H](N)Cc1ccc(O)cc1)C(=O)O [DADLE, Tyr-D-Ala-Gly-Phe-D-Leu]
agonist-induced downregulation of D MOR (total opioid radioligand binding sites) [1]: significant downregulation
agonist-induced downregulation of MOR (total opioid radioligand binding sites) [2]: not substantially downregulated

C[C@@H](NC(=O)[C@@H](N)Cc1ccc(O)cc1)C(=O)NCC(=O)N(C)[C@@H](Cc1ccccc1)C(=O)NCCO [DAMGO]
desensitization of D MOR ([3]; 5 μM, 10 minute exposure): Rapid desensitization
resensitization of D MOR [3, 14]: neither DOR nor D MOR resensitized significantly
colocalization of MOR with LAMP after agonist [4]: not colocalized with LAMP
desensitization of MOR ([5]; 5 μM, 10 minute exposure): Rapid desensitization
resensitization of MOR [5, 14]: recovered their ability to mediate agonist-dependent inhibition of adenylyl cyclase

endogenous GASP1 of HEK293 cells
percent of endogenous GASP1 immunoprecipitated with DOR [6]: < 1%
percent of total endogenous GASP1 coimmunoprecipitated with DOR [6]: < 1%

B1: GFP-cGASP1: GFP-tagged version of cGASP1 stably overexpressed in HEK293 cells (protein)
chain: SETEEETIFGSWFWDGKEVSEEAGPCCVSKPEDDEEMIVESWFWSRDKAIKETGTVATCESKPENEEGAIVGSWFEAEDEVDNRTDNGSNCGSRTLADEDEAIVGSWFWAGDEAHFESNPSPVFRAICRSTCSVEQEPDPSRRPQSWEEVTVQFKPGPWGRVGFPSISPFRFPKEAASLFCEMFGGKPRNMVLSPEGEDQESLLQPDQPSPEFPFQYDPSYRSVQEIREHLRAKESTEPESSSCNCIQCELKIGSEEFEELLLLMEKIRDPFIHEISKIAMGMRSASQFTRDFIRDSGVVSLIETLLNYPSSRVRTSFLENMIRMAPPYPNLNIIQTYICKVCEETLAYSVDSPEQLSGIRMIRHLTTTTDYHTLVANYMSGFLSLLATGNAKTRFHVLKMLLNLSENLFMTKELLSAEAVSEFIGLFNREETNDNIQIVLAIFENIGNNIKKETVFSDDDFNIEPLISAFHKVEKFAKELQGKTDNQNDPEGDQEN
modifications: left off: large carriers; small tags and cut ends
notes: GFP-tagged version of cGASP1 stably overexpressed in HEK293 cells
effect on downregulation of the EGF receptor [7]: unaffected
binding to B2AR-Ala in vivo (co-immunoprecipitation) [8]: binds in vivo
stability of endocytosed DOR (post-endocytic proteolysis) [9]: significantly more stable
competition with endogenous GASP1 for binding to DOR in vivo [10]: substantially reduced the amount of endogenous GASP1 recovered in DOR immunoprecipitates; also recorded: competes with endogenous GASP1 for binding to DOR in vivo

B2: cGASP1: carboxyl-terminal fragment of the GASP1 protein, corresponding to the C-terminal 497 residues of GASP1 (protein)
chain: B1 chain
effect on agonist-induced downregulation of DOR ([11]; cGASP1 overexpressed 30 fold over endogenous GASP1): less significantly
effect on agonist-induced downregulation of DOR ([11]; cGASP1 overexpressed 40-fold over endogenous GASP1): significantly inhibited
input recovered on washed GST-DOR [12]: 3-5%
stability of endocytosed B2AR-Ala (post-endocytic proteolysis) [13]: significantly more stable
